Results on 1 substance are retold here after paper PMC5437702.

The target in the assay is activatory Fc gamma receptor III (FcγRIII), mouse (mouse) (UniProt P08508). The assay can be described thus: SPR. (In general: SPR reads the build-up and loss of mass on a sensor chip optically.)

A value given as a limit tells only on which side of the number the result lay.

Chain of UniProt P08508 (P08508 31-261): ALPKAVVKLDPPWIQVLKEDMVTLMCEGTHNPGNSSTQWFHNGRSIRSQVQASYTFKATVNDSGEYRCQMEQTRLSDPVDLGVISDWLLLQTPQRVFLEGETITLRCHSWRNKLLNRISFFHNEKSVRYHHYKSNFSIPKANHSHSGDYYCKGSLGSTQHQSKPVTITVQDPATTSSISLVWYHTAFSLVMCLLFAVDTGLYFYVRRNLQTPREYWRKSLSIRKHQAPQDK

In the case of “anti-CD25 clone PC-61 rat IgG1 (αCD25-r1) (antibody)”, the A/I ratio (affinity for activatory FcγRIII against inhibitory FcγRIIb) is less than 1.
